Measured values from the supplement of paper PMC10567573.

B1: BTBD1 (parent)
chain: IVGFGLYGSIHGPTDYQVNIQIIE
B2: ZNF263 (parent)
chain: HLTRHQRTHTGEKPYKCTLCGENF

Variants of: B1
Test: protein stability index of a GFP-peptide fusion (GPS, HEK-293T) (PSI 1-6); higher = more stable
Conditions: c terminus: a fixed tail appended
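Also: lentivirally expressed fusions sorted by FACS into six bins by GFP to DsRed ratio, PSI derived from sequencing read proportions per bin multiplied by bin number.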

Protein stability index: each site, then its substitutions
N19: T 3.11; I 3.1; H 1.59; W 1.76; V 4.07; P 3.38; R 2.13; Q 2.56; G 1.59; M 4.59
V18: T 4; H 1.58; K 2.42; F 2.14; L 3.15; Q 2.38; E 2.36; I 2.72; N 1.8; R 2.39; D 2.32
E24: L 4.16; A 2.41; S 2.78; T 3.78; K 2.36; F 1.72; Y 2.02; Q 2.62; I 2.08; H 2.33; V 2.95; P 2.89; W 3.21
Q17: P 1.98; T 2.53; F 2.95; G 4.09; R 3.14; V 2.48; N 2.98; K 2.3; D 2.09; Y 2.44; E 2.95; S 2.31
I20: C 2.49; S 1.93; K 1.16; N 1.24; V 2.83; Q 2.58; L 3.4; H 2.21; D 2.31; P 2.21; T 2.13; M 4.04; R 2.12; A 2.29; E 1.46
I22: N 1.24; L 2.65; A 2.07; Q 3; D 1.3; Y 2.48; K 2.4; F 2.84; V 3.25; C 4.32; E 2; P 3.17; S 2.09; G 1.91; W 3.36; H 2.4
I23: V 2.82; W 1.57; S 2.29; P 2.21; R 2.12; E 2.23; M 3.68; H 4.05; K 2.13; N 3.56; L 2.96; C 2.05; Y 2.12
Q21: W 1.5; A 3.82; F 1.77; D 3.52; E 2.68; T 2.1; C 2.19; P 2.37; L 2.66; R 2.53; I 2.01; Y 3.06; G 2.44

Variants of: B2
Test: as above
Conditions: c terminus: a fixed tail appended

Protein stability index of substitutions, site by site:
Q6: A 2.93; C 3.36; F 2.08; R 3.19; M 2.6; E 2.71; P 2.69; N 2.46; V 2.29; G 2.85; K 2.94; L 2.61; W 2.04; S 3.68; T 2.75; Y 2.7; I 2.22; D 2.84; H 3.28
L2: A 3.06; M 3.04; N 3.73; I 2.59; S 3.8; K 3.38; Q 3.22; F 2.9; Y 3.3; E 3.31; C 4.73; W 2.71; G 3.51; T 3.14; V 3.39; H 3.53; D 4.16; R 2.79; P 3.57
T3: E 3.29; P 2.48; K 3.1; D 3.77; C 3.47; G 2.3; L 2.1; W 2.31; S 2.83; I 2.33; M 2.63; H 3.4; R 3.77; N 3.6; A 2.88; Q 3.28; Y 2.36; F 2.3; V 2.93
H5: T 2.24; S 3.2; Q 3.08; Y 2.39; M 2.28; R 2.74; P 2.91; D 2.56; K 2.98; E 2.96; A 2.69; C 3.92; G 3; W 2.31; V 2.27; F 2.47; I 2.11; L 2.09; N 2.34
R4: P 3.76; V 3.35; Y 2.76; H 3.53; S 3.37; K 3.47; N 3.09; F 2.38; E 3.7; W 2.5; I 2.61; Q 3.32; A 3.43; D 4.07; T 3.1; G 2.38; M 2.83; L 3.22; C 3.67
H9: N 2.79; F 2.22; E 3.41; P 2.77; A 2.67; I 2.48; L 2.51; G 3.04; D 2.83; V 2.65; R 3.11; W 1.89; T 3.04; Y 2.19; C 2.74; K 3.58; M 2.5; S 2.71; Q 2.67
G11: L 2.99; H 2.83; C 4.07; E 3.92; V 2.38; N 2.98; I 2.46; S 3.45; D 3.25; K 3.06; R 2.94; M 2.84; P 2.86; A 3.15; F 2.72; Y 2.17; Q 3.55; T 3.01; W 2.07
T10: Q 3.44; G 2.92; C 2.96; A 3.14; S 3.12; V 2.45; D 2.78; H 3.19; E 3.42; L 1.98; K 3.12; F 2.73; Y 2.58; W 2.82; R 3.36; P 2.45; M 2.48; N 2.44; I 3.13
K13: A 3.28; C 4.22; D 2.82
R7: N 3.51; C 4.78; W 2.12; V 2.96; E 3.98; T 3.6; L 2.97; K 2.97; I 2.4; D 3.2; S 3.36; M 2.94; A 2.94; H 4.64; Q 2.96; P 2.63; Y 2.9; F 2.49; G 3.39
E12: R 2.55; M 2.71; H 3.78; L 2.29; P 2.8; G 2.23; D 2.68; I 2.11; A 3.53; W 1.87; C 2.41; T 2.59; N 2.7; S 3.19; F 2.47; V 3.08; Y 2.84; K 3.2; Q 2.74
T8: Y 2.25; L 2.78; H 2.78; W 2.29; Q 3.41; D 3.52; F 2.46; R 3.49; G 2.9; M 2.5; E 3.4; S 3.4; N 3.22; K 2.38; V 2.65; C 2.99; P 2.54; I 3.1; A 3.44
H1: Q 3.06; G 2.19; P 4.14; W 2.22; A 3.07; C 4.02; S 3.12; D 2.97; Y 2.23; E 2.97; V 2.46; M 3.02; F 1.36; N 3.22; K 2.74; T 2.56; I 2.19; L 3.11; R 3.02
